Earlier results as cited in article PMC2892843.
pKd: −log10 of the molar value.

Biological target: NgR1 (UniProt Q9BZR6)
Chain of UniProt Q9BZR6 (Q9BZR6 27-447): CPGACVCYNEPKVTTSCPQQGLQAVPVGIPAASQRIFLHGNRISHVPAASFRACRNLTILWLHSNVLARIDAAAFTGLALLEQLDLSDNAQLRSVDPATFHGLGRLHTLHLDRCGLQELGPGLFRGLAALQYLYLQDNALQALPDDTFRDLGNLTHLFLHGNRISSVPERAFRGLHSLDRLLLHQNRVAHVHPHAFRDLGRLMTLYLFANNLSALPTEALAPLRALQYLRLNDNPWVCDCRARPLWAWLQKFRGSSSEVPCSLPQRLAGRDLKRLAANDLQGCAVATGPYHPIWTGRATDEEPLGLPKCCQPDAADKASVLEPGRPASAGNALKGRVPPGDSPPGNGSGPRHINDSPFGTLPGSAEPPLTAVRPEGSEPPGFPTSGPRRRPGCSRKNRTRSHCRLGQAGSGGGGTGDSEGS

pKd: 8.00
Substance: MAG (from UniProt P20916)
